# Measured values reported in the supplement of paper PMC10724198.
# ± gives the standard deviation of the averaged measurements.
# Key:
# Saccharomyces cerevisiae [1] = assay: protein stability index of tFT-peptide fusion (C-terminal peptide) (PSI (0-1 scale)); higher = more stable (slower turnover); settings: genetic background: wild type; temperature: 30 C
# Saccharomyces cerevisiae [2] = assay: as above
# Procedure: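 MPS profiling in S. cerevisiae of the tFT-X12 degron library: putative degron peptides plus stable controls, 12 aa, fused to the C-terminus of a sfGFP-mCherry timer. Cells are FACS-sorted into 8 mCherry/sfGFP bins and deep-sequenced. PSI runs from 0 (unstable) to 1 (stable). Backgrounds are wild type, das1Δ and doa10Δ at 30 °C, and wild type, das1Δ, cdc34-1 and cdc53-1 at 37 °C; 2-3 technical replicates each.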
# [3] = genetic background: cdc34-1, temperature: 37 C
# [4] = genetic background: cdc53-1, temperature: 37 C
# [5] = genetic background: das1 deletion, temperature: 30 C
# [6] = genetic background: das1 deletion, temperature: 37 C
# [7] = genetic background: doa10 deletion, temperature: 30 C
# [8] = genetic background: wild type, temperature: 30 C
# [9] = genetic background: wild type, temperature: 37 C
# 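Further: PSI is a weighted mean of sequencing reads over stability bins, variants kept only with over 10 reads, mCherry proximal and sfGFP distal, peptide attached via GGGS linker.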
Sequence,protein stability index (Saccharomyces cerevisiae [1]),protein stability index (Saccharomyces cerevisiae [2]; [3]),protein stability index (Saccharomyces cerevisiae [2]; [4]),protein stability index (Saccharomyces cerevisiae [2]; [5]),protein stability index (Saccharomyces cerevisiae [2]; [6]),protein stability index (Saccharomyces cerevisiae [2]; [7]),protein stability index (Saccharomyces cerevisiae [2]; [8]),protein stability index (Saccharomyces cerevisiae [2]; [9])
FVSVAGFIVVVV,0.4076 ± 0.00077,0.47 ± 0.018,0.488 ± 0.036,0.293 ± 0.048,0.5341 ± 0.0027,0.291 ± 0.013,0.28 ± 0.034,0.498 ± 0.0068
FVVGFVCSMVWG,0.144 ± 0.016,0.0975 ± 0.012,0.216 ± 0.024,0.0889 ± 0.026,0.252 ± 0.0045,0.0599 ± 0.0055,0.0702 ± 0.019,0.2266 ± 0.0022
FVVHPARYYLVL,0.4265 ± 0.0029,0.558 ± 0.077,0.682 ± 0.019,0.595 ± 0.023,0.664 ± 0.017,0.355 ± 0.0048,0.385 ± 0.02,0.489 ± 0.014
FVVSCLSWVFLF,0.175 ± 0.024,0.429 ± 0.0099,0.528 ± 0.04,0.434 ± 0.032,0.5418 ± 0.004,0.101 ± 0.022,0.114 ± 0.025,0.127 ± 0.026
FVVWKDVLVMVR,0.298 ± 0.029,0.132 ± 0.03,0.1451 ± 0.00045,0.2 ± 0.032,0.286 ± 0.0095,0.158 ± 0.0054,0.192 ± 0.034,0.257 ± 0.0093
FWCVFVFFVCVG,0.275 ± 0.01,0.255 ± 0.042,0.354 ± 0.006,0.258 ± 0.028,0.399 ± 0.013,0.231 ± 0.0025,0.238 ± 0.023,0.349 ± 0.017
FWGRAGVWRLKG,0.334 ± 0.025,0.684 ± 0.044,0.759 ± 0.019,0.651 ± 0.021,0.7821 ± 0.0066,0.228 ± 0.0067,0.276 ± 0.026,0.595 ± 0.022
FWSARAVVWWCW,0.477 ± 0.051,0.506 ± 0.036,0.554 ± 0.026,0.445 ± 0.021,0.567 ± 0.011,0.449 ± 0.012,0.449 ± 0.027,0.574 ± 0.039
FYFRSSFFTICF,0.398 ± 0.024,0.36 ± 0.038,0.3875 ± 0.0025,0.365 ± 0.033,0.46 ± 0.0018,0.4318 ± 0.0037,0.352 ± 0.014,0.446 ± 0.017
FYPLPASIPDFA,0.7216 ± 0.0018,0.695 ± 0.025,0.7541 ± 0.0025,0.67 ± 0.017,0.74197 ± 5.2e-05,0.675 ± 0.022,0.6686 ± 0.0026,0.72 ± 0.011
FYSLVQAWSKAP,0.501 ± 0.018,0.721 ± 0.037,0.715 ± 0.01,0.648 ± 0.012,0.727 ± 0.021,0.3898 ± 0.0019,0.415 ± 0.027,0.627 ± 0.018
GCGWVFWVVDWG,0.4431 ± 0.0038,0.463 ± 0.017,0.566 ± 0.0098,0.402 ± 0.028,0.563 ± 0.0075,0.369 ± 0.01,0.398 ± 0.027,0.539 ± 0.026
GCVMSVCSLAVS,0.486 ± 0.013,0.605 ± 0.019,0.624 ± 0.0098,0.45 ± 0.027,0.5659 ± 0.0049,0.453 ± 0.025,0.458 ± 0.011,0.54537 ± 2.2e-05
GCYWPKTLGILC,0.465 ± 0.004,0.546 ± 0.018,0.555 ± 0.02,0.408 ± 0.021,0.568 ± 0.0092,0.346 ± 0.0062,0.378 ± 0.025,0.56 ± 0.032
GGFLLRGLFLFL,0.525 ± 0.049,0.613 ± 0.032,0.652 ± 0.016,0.55 ± 0.024,0.6623 ± 0.0034,0.542 ± 0.025,0.52 ± 0.022,0.63 ± 0.015
GGHGGRRRKGVG,0.41 ± 0.046,0.36 ± 0.017,0.45 ± 0.0053,0.414 ± 0.019,0.435 ± 0.0098,0.409 ± 0.0082,0.381 ± 0.0054,0.439 ± 0.013
GGMVRSCLWCFV,0.432 ± 0.01,0.675 ± 0.034,0.755 ± 0.014,0.6 ± 0.011,0.754 ± 0.029,0.322 ± 0.011,0.357 ± 0.018,0.585 ± 0.0078
GGSHVWKFYRNF,0.4225 ± 0.0038,0.702 ± 0.09,0.7673 ± 0.0011,0.662 ± 0.031,0.767 ± 0.034,0.224 ± 0.0086,0.285 ± 0.027,0.5523 ± 0.0027
GGVFYVFFVFVG,0.195 ± 0.0076,0.19 ± 0.016,0.39 ± 0.016,0.246 ± 0.024,0.425 ± 0.013,0.128 ± 0.0049,0.153 ± 0.023,0.258 ± 0.013
GGVVAACRGGIG,0.346 ± 0.04,0.319 ± 0.011,0.3862 ± 0.0037,0.351 ± 0.017,0.394 ± 0.0076,0.361 ± 0.022,0.348 ± 0.01,0.374 ± 0.0091
GGVWSAFAVWVC,0.133 ± 0.0023,0.188 ± 0.0039,0.338 ± 0.027,0.288 ± 0.025,0.446 ± 0.0074,0.0761 ± 0.0025,0.0784 ± 0.013,0.0546 ± 0.014
GGWGSSLGVWVG,0.253 ± 0.011,0.663 ± 0.026,0.7542 ± 0.0024,0.644 ± 0.018,0.7674 ± 0.0045,0.178 ± 0.017,0.217 ± 0.015,0.4022 ± 0.0038
GIANHAMVIVVL,0.404 ± 0.04,0.444 ± 0.011,0.469 ± 0.0052,0.322 ± 0.037,0.508 ± 0.0078,0.278 ± 0.0066,0.312 ± 0.017,0.468 ± 0.033
GIPVRRLLFLVA,0.292 ± 0.051,0.419 ± 0.0098,0.478 ± 0.013,0.335 ± 0.033,0.5019 ± 0.0023,0.145 ± 0.0062,0.17 ± 0.024,0.311 ± 0.021
GKWVWSSFVWFG,0.19 ± 0.0062,0.457 ± 0.033,0.541 ± 0.011,0.509 ± 0.023,0.674 ± 0.03,0.0899 ± 0.0064,0.0965 ± 0.021,0.0945 ± 0.0042
GLFCCFLCLSVF,0.261 ± 0.015,0.241 ± 0.0047,0.297 ± 0.018,0.241 ± 0.041,0.343 ± 0.015,0.2 ± 0.004,0.204 ± 0.026,0.275 ± 0.017
GLFVGCWVFLVL,0.387 ± 0.061,0.344 ± 0.0095,0.445 ± 0.0049,0.307 ± 0.044,0.525 ± 0.012,0.294 ± 0.0069,0.297 ± 0.037,0.486 ± 0.015
GLIICRRCLWCC,0.267 ± 0.05,0.49 ± 0.01,0.527 ± 0.029,0.36 ± 0.031,0.5909 ± 0.00095,0.1721 ± 0.00088,0.182 ± 0.021,0.255 ± 0.01
GLLSLSGLRWFC,0.276 ± 0.11,0.672 ± 0.051,0.74727 ± 0.00044,0.659 ± 0.021,0.763 ± 0.022,0.163 ± 0.021,0.19 ± 0.035,0.462 ± 0.012
GLSWRLVWVVII,0.103 ± 0.011,0.0421 ± 0.0072,0.0599 ± 0.011,0.132 ± 0.02,0.189 ± 0.0048,0.0916 ± 0.006,0.0531 ± 0.0056,0.0493 ± 0.0093
